Source: article PMC11242853, “The Antimicrobial Activity of Human Defensins at Physiological Non-Permeabilizing Concentrations Is Caused by the Inhibition of the Plasma Membrane H^+-ATPases” (International Journal of Molecular Sciences, 2024)

Legend:
[1] = tested on: Lactococcus lactis subsp. lactis (strain IL1403); experiment: Antimicrobial spread-plate (CFU) killing assay, fermenting L. lactis; format: cell-based; settings: human lactoferrin 0.062 µM; fermentative conditions; relative to untreated control
Description: Microbial susceptibility to the peptides was determined in a spread-plate assay as described previously. Briefly, cell suspensions (10^6 cells/mL) in Tris buffer (10 mM Tris-HCl, pH 7.4) were incubated for 90 min at 37 °C with 2-fold serial peptide dilutions. Peptide concentrations ranged from 0 to 2 μM. After incubation, the number of viable cells was determined by plating aliquots (100 μL) in duplicate on plates (SDA for C. albicans, TSA for P. aeruginosa, and M17G agarified medium for L. lactis) that had been dried for 30 min at room temperature in a laminar flow hood. Plates were incubated for 24–48 h at 30 °C (C. albicans and L. lactis) or 24 h at 37 °C (P. aeruginosa). Dilutions yielding 50–200 colonies were counted. Cell viability values, expressed as colony-forming units (CFUs), were calculated relative to the incubation without added peptides and represent the means ± standard deviation (SD) from duplicates of three independent experiments. For inhibition assays, unless otherwise noted, cell suspensions were preincubated (15 min at 37 °C) with the appropriate inhibitor prior to the addition of peptides, but the inhibitor was present throughout the incubation period with the peptide (90 min at 37 °C). Other specific experimental conditions are described as appropriate. […]

C. albicans cells [2] = experiment: Extracellular potassium measurement (K+-efflux, ICP-MS); format: cell-based, Candida albicans; settings: peptides at NPIC / microbicidal concentrations; 10^7 cells/mL, 90 min at 37 °C; steady state compared with maximum intracellular K+ of untreated cells
Description: Potassium measurements were performed via inductively coupled plasma mass spectrometry using an Agilent 7700x ICP-MS (Agilent Technologies, Santa Clara, CA, USA). C. albicans cells were cultured in SDB for 16–20 h at 30 °C. The cells were then subcultured in the same media to the mid-logarithmic growth phase and rapidly washed in sterile, deionized, double-distilled water. The cells (10^7 cells/mL) were immediately incubated with the peptides (NPIC) for 90 min at 37 °C. The tubes were centrifuged at 1100× g for 10 min and the supernatants were collected and stored at 4 °C until analysis. The percentage of cytosolic potassium released from cell suspensions treated with nystatin (50 μM) was determined in positive control assays. Total cellular K^+-content (100% value) was measured in the supernatant of cell suspensions previously treated with 0.5% (v/v) HClO4 alone, heated for 1 h at 95 °C, and centrifuged to remove cell debris. Results are expressed as the percentage (means ± SD) of K^+-release relative to the total cellular K^+-content from duplicates of at least three independent assays.

[3] = tested on: Candida albicans ATCC 10231; experiment: Antimicrobial spread-plate (CFU) killing assay, C. albicans; format: cell-based
Description: To determine whether the above microbicidal concentrations exert a permeabilizing effect on fungal and bacterial membranes, the influx of the fluorescent nucleic acid-binding dye propidium iodide (PI) in cells incubated with the peptides was assessed. In cells, dye uptake reflects membrane permeabilization, as PI itself cannot permeate through an intact phospholipid bilayer. […] To select an antimicrobial but non-permeabilizing concentration of each peptide for further assays, we defined as a non-permeabilizing inhibitory concentration (NPIC) the antimicrobial inhibitory concentration (≤10% viable cells) that permeabilized ≤ 10% of cells incubated (90 min at 37 °C) in buffer solution.
Microbial susceptibility to the peptides was determined in a spread-plate assay as described previously. Briefly, cell suspensions (10^6 cells/mL) in Tris buffer (10 mM Tris-HCl, pH 7.4) were incubated for 90 min at 37 °C with 2-fold serial peptide dilutions. Peptide concentrations ranged from 0 to 2 μM. After incubation, the number of viable cells was determined by plating aliquots (100 μL) in duplicate on plates (SDA for C. albicans, TSA for P. aeruginosa, and M17G agarified medium for L. lactis) that had been dried for 30 min at room temperature in a laminar flow hood. Plates were incubated for 24–48 h at 30 °C (C. albicans and L. lactis) or 24 h at 37 °C (P. aeruginosa). Dilutions yielding 50–200 colonies were counted. Cell viability values, expressed as colony-forming units (CFUs), were calculated relative to the incubation without added peptides and represent the means ± standard deviation (SD) from duplicates of three independent experiments. For inhibition assays, unless otherwise noted, cell suspensions were preincubated (15 min at 37 °C) with the appropriate inhibitor prior to the addition of peptides, but the inhibitor was present throughout the incubation period with the peptide (90 min at 37 °C). Other specific experimental conditions are described as appropriate. In some experiments, the concentrations of human lactoferrin against C. albicans (5 μM), P. aeruginosa (1 μM), and L. lactis (0.065 μM) were used in the control assays. In various viability assays, BM2 peptide (0.25 μM), CCCP (50 μM), colistin (4 μg/mL), nystatin (50 μM), oligomycin A (16 μg/mL), piericidin A (32 μM), and TEA (10 mM) were used.

[4] = set-up: method as in 19 sources, ref 24; PMID 3290255; doi:10.1172/JCI113527; 24. Lehrer R.I. Ganz T. Szklarek D. Selsted M.E. Modulation of the in vitro candidacidal activity of human neutrophil defensins by target cell metabolism and divalent cations J. Clin. Invest. 1988 81 || [47]; PMID 11083633; doi:10.1128/AAC.44.12.3310-3316.2000; 47. Edgerton M. Koshlukova S.E. Araujo M.W. Patel R.C. Dong J. Bruenn J.A. Salivary histatin 5 and human neutrophil defensin 1 kill Candida albicans via shared pathways Antimicrob. Agents Chemother. 2 ||| ref 20 = [20]; PMID 17074797; doi:10.1128/AAC.00478-06; 20. Vylkova S. Nayyar N. Li W. Edgerton M. Human beta-defensins kill Candida albicans in an energy-dependent and salt-sensitive manner without causing membrane disruption Antimicrob. Agents Chemother. ||| ref 24, 62 (HNP-1); 62, 63 (HNP-4); 20 (hBD-2); 12, 20 (hBD-3); 34, 35, 64 cidal and 65, 66 static (lactoferrin) ||| ref 26 (HNP-1); 12 (HNP-4); 11 (hBD-2, hBD-3); 43, 67 (lactoferrin) ||| ref 14 (HNP-1); 23 (HNP-4); Yes 11, 13 / No 20 (hBD-2); No 20 / Yes 11 (hBD-3); 31, 34, 42 (lactoferrin) ||| ...; settings: Table 2, cited from earlier work
C. albicans cells [5] = experiment: Membrane potential monitoring with DiBAC4(3), flow cytometry; format: cell-based, Candida albicans; settings: peptides at NPIC, hLf 5 μM, BM2 0.25 μM; DiBAC4(3) 1 µg/mL
Description: The membrane potential-sensitive probe DiBAC4(3) was used to monitor the transmembrane electrical potential of C. albicans cells as previously described with slight modifications. Briefly, cells were harvested from mid-log phase cultures via centrifugation and suspended in Tris buffer. The cell suspension was adjusted to 10^6 cells/mL and then incubated with DiBAC4(3) at a final concentration of 1 µg/mL for 30 min. Fluorescence was measured using a CytoFLEX S flow cytometer (Beckman Coulter) with excitation at 561 nm and emission at 690/50 nm. For each treatment, 5000 events were counted per experiment with an exposure time of 1000 ms. Results were analyzed using CytExpert 2.1 Acquisition software. As positive controls, human lactoferrin and BM2 peptide were used. Three independent experiments were performed and data are expressed as means ± SD.

B1: human lactoferrin: Recombinant human apo-lactoferrin (hLf), 691 amino acid γ-core protein that inhibits microbial PM H+-ATPases; control (protein, UniProt P02788 20-710, looked up)
Lactotransferrin: GRRRSVQWCAVSQPEATKCFQWQRNMRKVRGPPVSCIKRDSPIQCIQAIAENRADAVTLDGGFIYEAGLAPYKLRPVAAEVYGTERQPRTHYYAVAVVKKGGSFQLNELQGLKSCHTGLRRTAGWNVPIGTLRPFLNWTGPPEPIEAAVARFFSASCVPGADKGQFPNLCRLCAGTGENKCAFSSQEPYFSYSGAFKCLRDGAGDVAFIRESTVFEDLSDEAERDEYELLCPDNTRKPVDKFKDCHLARVPSHAVVARSVNGKEDAIWNLLRQAQEKFGKDKSPKFQLFGSPSGQKDLLFKDSAIGFSRVPPRIDSGLYLGSGYFTAIQNLRKSEEEVAARRARVVWCAVGEQELRKCNQWSGLSEGSVTCSSASTTEDCIALVLKGEADAMSLDGGYVYTAGKCGLVPVLAENYKSQQSSDPDPNCVDRPVEGYLAVAVVRRSDTSLTWNSVKGKKSCHTAVDRTAGWNIPMGLLFNQTGSCKFDEYFSQSCAPGSDPRSNLCALCIGDEQGENKCVPNSNERYYGYTGAFRCLAENAGDVAFVKDVTVLQNTDGNNNEAWAKDLKLADFALLCLDGKRKPVTEARSCHLAMAPNHAVVSRMDKVERLKQVLLHQQAKFGRNGSDCPDKFCLFQSETKNLLFNDNTECLARLHGKTTYEKYLGPQYVAGITNLKKCSTSPLLEACEFLRK
modifications: apo form
notes: control
cell viability of L. lactis [1]: 13% ± 5%
K^+-efflux pattern in C. albicans (C. albicans cells [2]): partial K^+-efflux
effect of high extracellular K+ on candidacidal activity ([3]; 50 mM KCl, defensins at NPIC, hLf 5 μM, BM2 0.25 μM, nystatin 50 μM): significantly decreased
non-permeabilizing inhibitory concentration (NPIC), C. albicans ([3]; antimicrobial concentration (≤10% viable cells) that permeabilized ≤10% of cells, 10^6 cells/mL, Tris buffer pH 7.4, 90 min at 37 °C, from Figure 1 data, duplicates of three experiments): 5 µM
effect of piericidin A on candidacidal activity ([3]; cells preincubated 15 min at 37 °C with 32 µM piericidin A, then peptides (NPIC) 90 min): significantly (p < 0.001) inhibited
effect of oligomycin A on candidacidal activity ([3]; preincubated 15 min at 37 °C with 16 μg/mL oligomycin A, peptides at NPIC): significantly reduced
effect of Tok1p inhibition (TEA) on candidacidal activity ([3]; preincubation 15 min at 37 °C with 10 mM TEA+, peptides at NPIC): reduced
Cell death inhibitors, intracellular: Azide ([4]; 24 (HNP-1), 20 (hBD-2, hBD-3), 34 (lactoferrin)): No
Antimicrobial range ([4]; Gm+ Gram-positive bacteria, Gm− Gram-negative bacteria, F fungi, V viruses, P protozoa, no reference given): Gm +,Gm −,F,V,P
Cell death inhibitors, extracellular: Tok1p inhibitors (TEA) [4]: Yes
Cell death inhibitors, intracellular: Oligomycin A [4]: Yes
Cell death inhibitors, intracellular: Piericidin A [4]: Yes
Partial K^+-efflux [4]: Yes
Membrane permeabilization ([4]; ref 14 (HNP-1), 23 (HNP-4), Yes 11, 13 / No 20 (hBD-2), No 20 / Yes 11 (hBD-3), 31, 34, 42 (lactoferrin)): No
Cell death inhibitors, extracellular: Ca^2+ or Mg^2+ ([4]; ref 24 (HNP-1), 20 (hBD-2, hBD-3), 43 (lactoferrin)): Yes
Cell death inhibitors, intracellular: CCCP or DNP ([4]; ref 24 (HNP-1), 34 (lactoferrin)): Yes
Cell death inhibitors, extracellular: Anoxia ([4]; ref 24 (HNP-1), 34, 35 (lactoferrin)): Yes
Membrane depolarization ([4]; ref 26 (HNP-1), 12 (HNP-4), 11 (hBD-2, hBD-3), 43, 67 (lactoferrin)): Yes
ATP increment ([4]; ref 47 (HNP-1), 35 (lactoferrin)): Yes
Cell death inhibitors, extracellular: K^+ or Na^+ ([4]; ref 68 (HNP-1), 69 (HNP-4), 20 (hBD-2), No 11, 12 / Yes 20 (hBD-3), 31, 36, 43 (lactoferrin)): Yes
transmembrane electrical potential (DiBAC4(3) fluorescence) (C. albicans cells [5]): increase in DiBAC4(3) fluorescence
